The numbers were not newly measured in paper PMC12498412, which cites them from elsewhere.

As usually defined, the Kd is the constant that tells how readily two partners part at equilibrium.

This data set concerns the target Barnase (Bacillus amyloliquefaciens) (UniProt P00648).

Chain of Barnase (Bacillus amyloliquefaciens) (P00648 48-157): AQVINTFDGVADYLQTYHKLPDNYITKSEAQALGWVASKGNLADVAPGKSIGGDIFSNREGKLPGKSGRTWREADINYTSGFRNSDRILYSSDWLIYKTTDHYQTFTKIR
Chain of Barstar (P11540 2-90): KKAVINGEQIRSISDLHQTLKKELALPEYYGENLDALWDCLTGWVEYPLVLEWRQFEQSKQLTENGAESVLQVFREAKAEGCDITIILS

On to Barstar (from UniProt P11540), for which the Kd was 64 nM.
